According to article PMC11098746 (2024):

Legend:
Assay in all cases: AVEXIS screen signal:noise (double-corrected)
ADP363 = target: ADP363
ADP276 = target: T1, ADP276
T1 chain: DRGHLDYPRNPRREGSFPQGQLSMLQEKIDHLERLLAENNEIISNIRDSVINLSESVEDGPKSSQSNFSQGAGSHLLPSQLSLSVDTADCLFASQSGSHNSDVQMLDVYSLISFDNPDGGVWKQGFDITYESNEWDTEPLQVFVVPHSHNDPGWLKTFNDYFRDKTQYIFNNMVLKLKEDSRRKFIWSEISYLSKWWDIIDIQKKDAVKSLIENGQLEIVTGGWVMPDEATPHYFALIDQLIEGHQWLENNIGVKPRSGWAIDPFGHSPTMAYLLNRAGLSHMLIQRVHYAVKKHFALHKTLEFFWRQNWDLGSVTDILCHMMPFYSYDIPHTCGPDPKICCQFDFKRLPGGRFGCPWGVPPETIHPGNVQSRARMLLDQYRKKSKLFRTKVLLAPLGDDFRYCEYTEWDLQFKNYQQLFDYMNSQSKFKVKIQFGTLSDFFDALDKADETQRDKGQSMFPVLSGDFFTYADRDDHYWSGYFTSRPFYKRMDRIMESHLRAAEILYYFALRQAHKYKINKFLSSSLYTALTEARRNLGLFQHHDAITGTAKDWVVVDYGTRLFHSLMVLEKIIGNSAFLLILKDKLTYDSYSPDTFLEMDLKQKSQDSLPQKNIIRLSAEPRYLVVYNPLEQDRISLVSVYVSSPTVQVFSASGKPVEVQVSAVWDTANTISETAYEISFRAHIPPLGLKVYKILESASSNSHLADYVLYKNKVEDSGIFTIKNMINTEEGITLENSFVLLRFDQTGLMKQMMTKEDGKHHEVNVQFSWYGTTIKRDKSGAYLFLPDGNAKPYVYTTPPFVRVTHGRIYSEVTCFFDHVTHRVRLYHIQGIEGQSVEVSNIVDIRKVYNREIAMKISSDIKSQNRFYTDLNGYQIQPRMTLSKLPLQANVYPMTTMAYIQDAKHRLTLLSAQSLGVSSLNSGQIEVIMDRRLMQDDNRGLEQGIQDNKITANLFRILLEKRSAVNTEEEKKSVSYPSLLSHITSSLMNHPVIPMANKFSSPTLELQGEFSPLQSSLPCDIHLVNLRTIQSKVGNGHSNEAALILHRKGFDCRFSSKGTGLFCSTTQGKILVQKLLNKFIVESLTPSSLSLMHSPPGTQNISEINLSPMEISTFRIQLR

ADP296 = target: T2, ADP296
T2 chain: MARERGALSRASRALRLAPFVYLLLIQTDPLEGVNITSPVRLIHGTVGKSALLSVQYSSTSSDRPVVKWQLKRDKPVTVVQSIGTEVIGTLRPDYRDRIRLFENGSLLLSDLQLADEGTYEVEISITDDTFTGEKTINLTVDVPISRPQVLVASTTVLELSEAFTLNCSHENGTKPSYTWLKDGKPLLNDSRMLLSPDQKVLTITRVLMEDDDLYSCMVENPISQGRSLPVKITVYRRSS

ADP104 = target: T3, ADP104
T3 chain: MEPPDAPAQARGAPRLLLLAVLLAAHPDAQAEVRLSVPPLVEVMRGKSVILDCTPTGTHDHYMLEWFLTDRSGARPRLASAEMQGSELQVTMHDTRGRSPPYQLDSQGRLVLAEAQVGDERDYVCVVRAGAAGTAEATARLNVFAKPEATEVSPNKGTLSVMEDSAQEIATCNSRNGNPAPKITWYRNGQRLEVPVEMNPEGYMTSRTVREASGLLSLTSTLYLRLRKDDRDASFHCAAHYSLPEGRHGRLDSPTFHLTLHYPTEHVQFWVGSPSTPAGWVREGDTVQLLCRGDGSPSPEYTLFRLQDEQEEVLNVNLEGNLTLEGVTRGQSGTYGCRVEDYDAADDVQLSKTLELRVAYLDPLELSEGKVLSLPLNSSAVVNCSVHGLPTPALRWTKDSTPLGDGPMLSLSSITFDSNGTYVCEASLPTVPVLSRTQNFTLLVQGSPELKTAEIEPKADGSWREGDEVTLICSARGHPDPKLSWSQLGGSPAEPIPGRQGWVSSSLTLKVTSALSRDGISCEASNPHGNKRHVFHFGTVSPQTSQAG

ADP141 = target: T4, ADP141
T4 chain: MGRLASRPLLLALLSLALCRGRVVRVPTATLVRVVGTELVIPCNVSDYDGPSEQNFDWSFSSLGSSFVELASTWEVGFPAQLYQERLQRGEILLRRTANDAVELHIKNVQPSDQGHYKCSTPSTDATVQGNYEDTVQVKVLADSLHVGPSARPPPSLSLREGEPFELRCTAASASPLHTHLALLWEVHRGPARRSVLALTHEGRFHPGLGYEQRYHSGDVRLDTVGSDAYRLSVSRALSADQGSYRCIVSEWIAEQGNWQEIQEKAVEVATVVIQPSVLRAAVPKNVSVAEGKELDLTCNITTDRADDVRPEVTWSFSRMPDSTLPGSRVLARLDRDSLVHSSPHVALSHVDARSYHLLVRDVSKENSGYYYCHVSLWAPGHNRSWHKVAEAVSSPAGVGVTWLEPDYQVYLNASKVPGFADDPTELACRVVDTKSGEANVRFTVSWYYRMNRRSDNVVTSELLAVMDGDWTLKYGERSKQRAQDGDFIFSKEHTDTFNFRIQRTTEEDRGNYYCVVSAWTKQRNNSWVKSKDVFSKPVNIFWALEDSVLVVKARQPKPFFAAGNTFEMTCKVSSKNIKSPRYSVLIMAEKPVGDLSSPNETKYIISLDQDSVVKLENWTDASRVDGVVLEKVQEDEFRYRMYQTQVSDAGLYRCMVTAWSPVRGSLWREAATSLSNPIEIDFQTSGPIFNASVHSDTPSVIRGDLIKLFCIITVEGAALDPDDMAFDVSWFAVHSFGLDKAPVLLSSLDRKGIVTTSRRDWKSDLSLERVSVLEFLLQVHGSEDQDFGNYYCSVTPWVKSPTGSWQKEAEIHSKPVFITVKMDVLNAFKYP

ADP132 = target: ADP132
ADP110 = target: ADP110
ADP317 = target: T5, ADP317
T5 chain: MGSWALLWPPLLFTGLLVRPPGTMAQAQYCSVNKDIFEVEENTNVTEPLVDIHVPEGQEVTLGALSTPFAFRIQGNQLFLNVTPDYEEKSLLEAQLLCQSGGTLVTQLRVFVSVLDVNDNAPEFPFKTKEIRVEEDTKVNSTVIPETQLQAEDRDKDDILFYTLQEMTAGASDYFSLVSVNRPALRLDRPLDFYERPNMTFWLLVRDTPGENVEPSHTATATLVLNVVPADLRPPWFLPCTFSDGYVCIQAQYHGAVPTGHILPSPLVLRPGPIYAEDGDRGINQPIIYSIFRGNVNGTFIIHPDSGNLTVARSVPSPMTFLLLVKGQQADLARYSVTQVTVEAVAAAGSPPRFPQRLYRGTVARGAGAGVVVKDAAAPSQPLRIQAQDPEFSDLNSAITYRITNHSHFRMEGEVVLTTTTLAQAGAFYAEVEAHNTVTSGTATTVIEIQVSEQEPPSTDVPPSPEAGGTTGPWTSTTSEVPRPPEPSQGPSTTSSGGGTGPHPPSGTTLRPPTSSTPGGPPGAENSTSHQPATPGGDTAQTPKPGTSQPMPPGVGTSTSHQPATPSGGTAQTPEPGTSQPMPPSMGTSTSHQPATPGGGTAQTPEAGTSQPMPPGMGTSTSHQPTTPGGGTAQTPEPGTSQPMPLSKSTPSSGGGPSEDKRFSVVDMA

B1: ADP168 (protein)
chain: NNIKLNDKENINFESYFNKRTNEENVLNKNVAKEMGDTFVAHKAIELNINHHHVNNDKEFNNNNNNKHQPYYHNEHDKKFSESLKAHMDHLKILNNDLKQHIDKKERNEIYENNDLKKYIIKEIQNNKYLNKEKKSSEDIQILEEHSKKLQKEIHEWLESVNNIEEKSNILKNIKSQLLNNIASLNHALSEEIKNINDIKELQKQQNDLFSENWLYFLPSSSDYLLNEKKKNLYDNQDNSMKDDINNNDKYNIFNYLQNVQDKDNQYEVMKQDNNNIHSGSS
modifications: bait human Fc-tagged dimer; N-glycosylation sequons mutated in Plasmodium baits
ADP363
  binding score: 198
ADP276
  binding score: 5.43

B2: ADP233 (protein)
chain: SPGNDNNNVNNDGVVHVLSKNIDVKNLQGTFYEIATNAADKIFPGLACRCTKYEFSGLKRDGNLGYVLINFACARNFIFGEKKSEMTFKLILNKPLDENTATVEEFNAAIYLVQGNQQILLNGNINIIYAELNEQNEFEHLILGGQKSIEPMIIMSKYRTVLLDTYNKLINSLYLAGYEPSLLTWPFIIQTDQTFCD
modifications: bait human Fc-tagged dimer; N-glycosylation sequons mutated in Plasmodium baits
ADP296
  binding score: 6.11
ADP104
  binding score: 7.73
ADP141
  binding score: 5.97

B3: ADP190 (protein)
chain: IQLHSVNYAPLNYIEIGDTLSNKVGELWHSHLNSFIDIVSTKVVNKLEDDLSNGNNLEKFMILLEDDADIFDASAYEGKNLALIQTEFIRKLKDKFKNSKFGQKLKKLGSKAKEKLLSLYQKHKGKLRHFFSILLKSLVIPIAVQFIRKNLNKWKQRTLEATQKLDEQSKNIAQPIINRLYNSFEDKIEEYSQENKINVEDELNALGQLDKDKQDIQKLEEQEKALLQ
modifications: bait human Fc-tagged dimer; N-glycosylation sequons mutated in Plasmodium baits
ADP132
  binding score: 11.3
ADP110
  binding score: 11.4

B4: ADP227 (protein)
chain: LKVPIENAPFVFNKKENDIKYFLDKETPDDFLSNNAYSLDITLENFPNPFFHPSLCNRYGFKFSYICDPNKILSRNIADQIEEILNYQRRNSKHFCVDKEVPYVLGVALINKLPYGISADTFASQIFEYWKLSNKDCNDGVLLFFVKEDTHFILKWKKGAQSIINFRTATSMNKAFNQYLRKYSLEYSILSAVKLTSQYLTEEIIPPTQTAQK
modifications: bait human Fc-tagged dimer; N-glycosylation sequons mutated in Plasmodium baits
ADP317
  binding score: 5.21
ADP141
  binding score: 6.72
